Experimental data from patent publication US20170166644A1 (SORRENTO THERAPEUTICS, published 2017).

Legend:
VEGFR2 [1] = biological target: T1, VEGFR2; experiment: EC50 measurement, summary table; assay not stated
T1 construct: also called KDR
T1 sequence (P35968 20-764): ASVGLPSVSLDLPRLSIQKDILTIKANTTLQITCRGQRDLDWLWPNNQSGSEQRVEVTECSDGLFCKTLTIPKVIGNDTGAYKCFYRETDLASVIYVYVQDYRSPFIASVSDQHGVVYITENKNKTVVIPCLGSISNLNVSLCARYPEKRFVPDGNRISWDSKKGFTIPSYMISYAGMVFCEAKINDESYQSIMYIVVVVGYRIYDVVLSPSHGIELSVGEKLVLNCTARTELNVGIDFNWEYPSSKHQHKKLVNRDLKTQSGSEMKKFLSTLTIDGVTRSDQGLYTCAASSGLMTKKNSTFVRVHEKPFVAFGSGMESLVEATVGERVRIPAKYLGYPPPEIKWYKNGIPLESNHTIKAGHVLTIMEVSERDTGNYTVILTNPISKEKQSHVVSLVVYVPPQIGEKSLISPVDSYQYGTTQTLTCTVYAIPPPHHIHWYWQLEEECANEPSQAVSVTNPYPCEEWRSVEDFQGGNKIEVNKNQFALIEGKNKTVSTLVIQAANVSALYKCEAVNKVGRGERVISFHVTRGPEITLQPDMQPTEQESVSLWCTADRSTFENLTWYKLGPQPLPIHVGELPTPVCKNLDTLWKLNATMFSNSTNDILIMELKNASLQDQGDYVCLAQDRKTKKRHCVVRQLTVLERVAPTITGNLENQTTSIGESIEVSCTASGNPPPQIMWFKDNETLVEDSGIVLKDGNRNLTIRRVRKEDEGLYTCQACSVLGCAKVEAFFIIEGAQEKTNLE

soluble VEGFR2-Fc [2] = experiment: blocking of VEGF binding to soluble VEGFR2-Fc, VK-B8 titrated, readout OD 450; plate format not described; unit taken from the axis label 'VK-B8 [log M]'
VEGFR2 on HUVECs [3] = biological target: T2, VEGFR2 on HUVECs (human, UniProt P35968 20-1356); experiment: cell binding to HUVE cells, flow cytometry (FIG. 3 legend); FIG. 3 legend, unrounded value
T2 construct: whole, on cells; also called VEGFR2 receptor in HUVECs; HUVE cells
T2 sequence (P35968 20-1356): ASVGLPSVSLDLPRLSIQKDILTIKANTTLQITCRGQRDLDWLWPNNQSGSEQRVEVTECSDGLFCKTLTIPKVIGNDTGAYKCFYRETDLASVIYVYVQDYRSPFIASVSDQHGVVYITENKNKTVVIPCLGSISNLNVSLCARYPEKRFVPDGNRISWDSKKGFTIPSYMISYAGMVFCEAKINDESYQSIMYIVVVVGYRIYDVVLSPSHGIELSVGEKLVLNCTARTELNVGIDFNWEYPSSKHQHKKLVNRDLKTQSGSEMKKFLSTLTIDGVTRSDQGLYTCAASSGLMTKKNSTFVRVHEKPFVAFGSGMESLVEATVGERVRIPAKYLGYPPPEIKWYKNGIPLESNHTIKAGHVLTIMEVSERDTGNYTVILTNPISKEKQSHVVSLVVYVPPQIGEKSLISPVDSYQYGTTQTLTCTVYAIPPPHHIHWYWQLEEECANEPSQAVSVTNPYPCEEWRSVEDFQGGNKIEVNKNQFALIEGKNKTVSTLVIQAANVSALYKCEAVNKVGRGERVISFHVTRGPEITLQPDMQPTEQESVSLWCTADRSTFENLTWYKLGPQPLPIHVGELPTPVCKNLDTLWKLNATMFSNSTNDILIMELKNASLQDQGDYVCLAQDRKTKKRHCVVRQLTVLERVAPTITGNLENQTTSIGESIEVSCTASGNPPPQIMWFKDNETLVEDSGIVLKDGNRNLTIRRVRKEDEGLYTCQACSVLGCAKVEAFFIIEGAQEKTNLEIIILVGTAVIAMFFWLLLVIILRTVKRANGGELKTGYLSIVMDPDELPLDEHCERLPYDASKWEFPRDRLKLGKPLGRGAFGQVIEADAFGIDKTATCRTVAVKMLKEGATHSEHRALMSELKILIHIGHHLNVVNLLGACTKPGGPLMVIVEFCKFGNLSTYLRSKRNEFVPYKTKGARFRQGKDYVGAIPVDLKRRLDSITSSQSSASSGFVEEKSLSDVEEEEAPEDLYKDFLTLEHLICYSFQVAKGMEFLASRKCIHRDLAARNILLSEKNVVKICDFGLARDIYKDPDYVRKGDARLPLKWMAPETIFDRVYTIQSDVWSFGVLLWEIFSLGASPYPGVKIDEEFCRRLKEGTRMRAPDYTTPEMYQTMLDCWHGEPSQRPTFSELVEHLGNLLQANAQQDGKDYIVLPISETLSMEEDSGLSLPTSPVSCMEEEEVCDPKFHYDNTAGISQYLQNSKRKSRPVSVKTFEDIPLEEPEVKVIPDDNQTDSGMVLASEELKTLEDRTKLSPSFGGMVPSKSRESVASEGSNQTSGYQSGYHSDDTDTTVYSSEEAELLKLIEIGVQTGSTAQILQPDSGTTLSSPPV
Description: (§1) This example illustrates in vitro data for VK-B8 cellular EC₅₀ measurements. Protocol: 50,000 HUVECs were aliquoted into the wells of a 96-well, v-bottom plate in 100 ul FACS Buffer (PBS+2% FBS). A twelve point, 3× dilution curve of VK-B8 was made in FACS Buffer starting at 50 μg/ml (3.33×10⁻⁷ M). Cells were spun down, washed 1× with FACS Buffer, and then resuspended in 25 μl of antibody solution in triplicate. […] Cells were further incubated for 0.5 hr. and then washed 1× with FACS Buffer. Cells were resuspended in 25 μl FACS Buffer and the median fluorescence intensity in the FL2-H channel was determined using the Intellicyt HTFC flow cytometer.
(§2) Results: The cell binding EC₅₀ for VK-B8 on HUVECs was determined to be 1.3 nM. Data was analyzed and plotted in Graph Pad Prizm using non-linear regression fit. Data points are shown (FIG. 4) as the median fluorescence intensity (MFI) of positively labeled cells +/− Std Error.

VEGFR2 on HUVECs [4] = biological target: T2, VEGFR2 on HUVECs; experiment: cell-based or functional assay
VEGFR2 on HUVECs [5] = biological target: T2, VEGFR2 on HUVECs; experiment: flow cytometry on HUVECs, MFI against antibody concentration, non-linear fit (Example 6); unit taken from the axis label 'Antibody Conc (M)', log scale
Description: as §1, §2

soluble VEGFR2-Fc [6] = experiment: blocking of VEGF binding to soluble VEGFR2-Fc (FIG. 2)
VEGFR2 [7] = biological target: T1, VEGFR2; experiment: IC50 measurement, summary table; assay not stated
VEGFR2 [8] = biological target: T1, VEGFR2; experiment: Biacore

Chain of soluble VEGFR2-Fc (P35968 20-764): as the sequence (P35968 20-764) above

Binder | EC50 (VEGFR2 [1]) | IC50 (VEGFR2 [7]) | Kd (VEGFR2 [8]) | koff (VEGFR2 [8]) | kon (VEGFR2 [8]) | other results
VB-E1 (antibody, V domains shown) VH: QVQLVESGAEVKKPGASVKVSCKASGYTFTNYYIHWVRQAPGQGLEWMGIINPSSGSTNYAQKFQGRVTMTRDTSTSTVYMELSSLRSEDTAVYYCARQRWDLLDDAFDIWGQGTMVTVSS VL: DIVMTQSPDSLAVSLGERATINCKTSQSVLYNANNKNYLNWYQQKPGQPPKLLIYWASARESGVPDRFSGSGSGTDFTLTIRSLQPDDFATYYCQQAISFPLTFGGGTKVEIK | 0.5 nM | – | – | – | – | –
VK-B8 (antibody, V domains shown, The printed VH starts with MA; also called STI-A0168; anti-VEGFR2 antibody VK-B8) VH: QVQLVQSGAEVKKPGSSVKVSCKAYGGTFGSYGVSWVRRAPGQGLEWMGRLIPIFGTRDYAQKFQGRVTLTADESTNTAYMELSSLRSEDTAVYYCARDGDYYGSGSYYGMDVWGQGTLVTVSS VL: ETTLTQSPATLSVSPGERATVSCRASQSLGSNLGWFQQKPGQAPRLLIYGASTRATGIPARFSGSGSGTEFTLTISSLQSEDFAVYFCQQYNDWPITFGQGTRLEIK | 0.25 nM | 2.04 nM | 0.121 nM | 8.73e-05 s⁻¹ | 724000 M⁻¹ s⁻¹ | IC50 (soluble VEGFR2-Fc [2]): 0.771 nM; EC50 (VEGFR2 on HUVECs [3]): ~1.3 nM; IC50 for VK-B8 inhibition of VEGF-induced p44/p42 MAPK (Erk1/2) phosphorylation in HUVECs, phospho-ELISA (VEGFR2 on HUVECs [4]): 0.08 nM; IC50 value for the inhibition of VEGF-induced HUVEC cell migration by VK-B8 (FIG. 14 legend) (VEGFR2 on HUVECs [4]): 0.53 nM; IC50 value for the inhibition of VEGF-induced HUVEC cell proliferation by VK-B8 (FIG. 13 legend) (VEGFR2 on HUVECs [4]): 14.9 nM; IC50 value for the inhibition of VEGF-induced HUVEC migration by VK-B8 (modified Boyden chamber) (VEGFR2 on HUVECs [4]): 0.5 nM; IC50 value for the inhibition of VEGF-induced HUVEC proliferation by VK-B8 (VEGFR2 on HUVECs [4]): 14 nM; EC50 (VEGFR2 on HUVECs [5]): 1.3 nM; IC50 (soluble VEGFR2-Fc [6]): ~0.77 nM
RV-H5 (antibody, V domains shown) VH: not shown VL: QAGLTQPPSVSVSPGQTASITCSGDKLGDKYISWYQQKPGQSPVMVIFQDTKRPSGIPERFSGSNSGNTATLTISGTQAMDEADYYCQAWDTSTVFGGGTKLTVL | 0.323 nM | 5.79 nM | 0.815 nM | 0.00225 s⁻¹ | 2.76e+06 M⁻¹ s⁻¹ | –
VB-A9 (antibody, V domains shown) VH: EVQLVESGGGLVKPGGSLRLSCAASGFTFSSYSMNWVRQAPGKGLEWVSSISSGSSYIYYADSLKGRFTISRDNAKNSLYLQMNSLRAEDTAVYYCARDFGNWGQGTLVTVSS VL: QSALTQPRSVSASPGQSVTISCTGTSSDVGGYDYVSWYQQHPGKAPKLMIYEVSNRPSGVSNRFSGSKSGNTASLSISGLQAEDEADYYCSSYTSTSSPVVFGGGTKLTVL | 0.25 nM | 2.05 nM | 3.02 nM | 0.000496 s⁻¹ | 164000 M⁻¹ s⁻¹ | –
VB-A3 (antibody, V domains shown) VH: QVQLVQSGAEVKKPGASVKVSCKASGHTFNYYYMHWVRQAPGQGLEWMGQTNLNSGGTNYAPKFQGRVTMTRDTSISTAYMELSSLRSDDTAVYYCANLNSGWFHFENWGQGTLVTVSS VL: SYELTQPPSVSVAPGKTASITCGGNNIGSKSVHWYQQKPGQAPVLVIYYDRDRPSGIPERFSGSNSGNTATLTISRVEAGDEADYYCQVWDSSSYHPVFGGGTKLTVL | – | – | 3.09 nM | 0.012 s⁻¹ | 3.88e+06 M⁻¹ s⁻¹ | –

The next lines start with results.

EC50 (VEGFR2 [1]) | IC50 (VEGFR2 [7]) | Kd (VEGFR2 [8]) | koff (VEGFR2 [8]) | kon (VEGFR2 [8]) | Binder | other results
24.3 nM | – | – | – | – | VR-B4 (antibody, V domains shown) VH: QVQLVQSGAEVKKPGSSVKVSCKAYGGTFGSYGVSWVRRAPGQGLEWMGRLIPIFGTRDYAQKFQGRVTLTADESTNTAYMELSSLRSEDTAVYYCARDGDYYGSGSYYGMDVWGQGTTVTVSS VL: SYELTQPASVSGSPGQSITISCTGSSSDVGGYNFVSWYRQHAGKAPKLMIYDVTNRPSGVSTRFSGSKSGTTASLTISGLQPDDEAHYYCSSYTTTSTWVFGGGTKLTVL | –
1.29 nM | 9.32 nM | – | – | – | VR-E3 (antibody, V domains shown) VH: EVQLVESGGGLVKPGGSLRLSCAASGFTFSSYSMNWVRQAPGKGLEWVSSISSASSYIYYADSVKGRFTISRDNAKKSLYLQLNSLTVEDTAVYYCAREYWGSPDYWGRGTLVTVSS VL: QPVLTQPPSASGSPGQSVTISCTGTSSDVGGYNYVSWYQQHPGKAPKLMIYDVNNRPSGVPDRFSGSKSGNTASLTISGLQAEDEADYYCSSYTSSSTRVFGGGTKLTVL | –
0.747 nM | – | – | – | – | VR-B2 (antibody, V domains shown) VH: EVQLLESGGGLVQPGGSLRLSCAASGFTFSSYAMHWVRQAPGKGLEWVAVISYDGSNKYYADSVKGRFTISRDNSKNTLYLQMNSLRAEDTAVYYCARDLGAASYWYFDLWGRGTLVTVSS VL: DIQLTQSPPSVSASVGDRVTITCRASQDISTWLAWYQQKPGSAPKVLIYAASTFQSGVPSRFRGSGSGTYFTLTISGLQPEDFATYYCQQGNSFPPTFGQGTKLEIK | –
